Test results taken from US20240043519A1 (OHIO STATE INNOVATION FOUNDATION, published 2024).

Key:
[1] = target: T1, NOTCH2 (human, UniProt Q04721 26-2471); experiment: co-immunoprecipitation, THP-1 cells and human AML patient blasts (figure legend)
T1 construct: whole, on cells; Endogenous protein from cell lysates (co-IP); also called NOTCH2 protein

[2] = target: T2, NOTCH1 (human, UniProt P46531 19-2555); experiment: as above
T2 construct: whole, on cells; Endogenous protein from cell lysates (antibody array, co-IP); also called NOTCH1 protein

T1 sequence (Q04721 26-2471): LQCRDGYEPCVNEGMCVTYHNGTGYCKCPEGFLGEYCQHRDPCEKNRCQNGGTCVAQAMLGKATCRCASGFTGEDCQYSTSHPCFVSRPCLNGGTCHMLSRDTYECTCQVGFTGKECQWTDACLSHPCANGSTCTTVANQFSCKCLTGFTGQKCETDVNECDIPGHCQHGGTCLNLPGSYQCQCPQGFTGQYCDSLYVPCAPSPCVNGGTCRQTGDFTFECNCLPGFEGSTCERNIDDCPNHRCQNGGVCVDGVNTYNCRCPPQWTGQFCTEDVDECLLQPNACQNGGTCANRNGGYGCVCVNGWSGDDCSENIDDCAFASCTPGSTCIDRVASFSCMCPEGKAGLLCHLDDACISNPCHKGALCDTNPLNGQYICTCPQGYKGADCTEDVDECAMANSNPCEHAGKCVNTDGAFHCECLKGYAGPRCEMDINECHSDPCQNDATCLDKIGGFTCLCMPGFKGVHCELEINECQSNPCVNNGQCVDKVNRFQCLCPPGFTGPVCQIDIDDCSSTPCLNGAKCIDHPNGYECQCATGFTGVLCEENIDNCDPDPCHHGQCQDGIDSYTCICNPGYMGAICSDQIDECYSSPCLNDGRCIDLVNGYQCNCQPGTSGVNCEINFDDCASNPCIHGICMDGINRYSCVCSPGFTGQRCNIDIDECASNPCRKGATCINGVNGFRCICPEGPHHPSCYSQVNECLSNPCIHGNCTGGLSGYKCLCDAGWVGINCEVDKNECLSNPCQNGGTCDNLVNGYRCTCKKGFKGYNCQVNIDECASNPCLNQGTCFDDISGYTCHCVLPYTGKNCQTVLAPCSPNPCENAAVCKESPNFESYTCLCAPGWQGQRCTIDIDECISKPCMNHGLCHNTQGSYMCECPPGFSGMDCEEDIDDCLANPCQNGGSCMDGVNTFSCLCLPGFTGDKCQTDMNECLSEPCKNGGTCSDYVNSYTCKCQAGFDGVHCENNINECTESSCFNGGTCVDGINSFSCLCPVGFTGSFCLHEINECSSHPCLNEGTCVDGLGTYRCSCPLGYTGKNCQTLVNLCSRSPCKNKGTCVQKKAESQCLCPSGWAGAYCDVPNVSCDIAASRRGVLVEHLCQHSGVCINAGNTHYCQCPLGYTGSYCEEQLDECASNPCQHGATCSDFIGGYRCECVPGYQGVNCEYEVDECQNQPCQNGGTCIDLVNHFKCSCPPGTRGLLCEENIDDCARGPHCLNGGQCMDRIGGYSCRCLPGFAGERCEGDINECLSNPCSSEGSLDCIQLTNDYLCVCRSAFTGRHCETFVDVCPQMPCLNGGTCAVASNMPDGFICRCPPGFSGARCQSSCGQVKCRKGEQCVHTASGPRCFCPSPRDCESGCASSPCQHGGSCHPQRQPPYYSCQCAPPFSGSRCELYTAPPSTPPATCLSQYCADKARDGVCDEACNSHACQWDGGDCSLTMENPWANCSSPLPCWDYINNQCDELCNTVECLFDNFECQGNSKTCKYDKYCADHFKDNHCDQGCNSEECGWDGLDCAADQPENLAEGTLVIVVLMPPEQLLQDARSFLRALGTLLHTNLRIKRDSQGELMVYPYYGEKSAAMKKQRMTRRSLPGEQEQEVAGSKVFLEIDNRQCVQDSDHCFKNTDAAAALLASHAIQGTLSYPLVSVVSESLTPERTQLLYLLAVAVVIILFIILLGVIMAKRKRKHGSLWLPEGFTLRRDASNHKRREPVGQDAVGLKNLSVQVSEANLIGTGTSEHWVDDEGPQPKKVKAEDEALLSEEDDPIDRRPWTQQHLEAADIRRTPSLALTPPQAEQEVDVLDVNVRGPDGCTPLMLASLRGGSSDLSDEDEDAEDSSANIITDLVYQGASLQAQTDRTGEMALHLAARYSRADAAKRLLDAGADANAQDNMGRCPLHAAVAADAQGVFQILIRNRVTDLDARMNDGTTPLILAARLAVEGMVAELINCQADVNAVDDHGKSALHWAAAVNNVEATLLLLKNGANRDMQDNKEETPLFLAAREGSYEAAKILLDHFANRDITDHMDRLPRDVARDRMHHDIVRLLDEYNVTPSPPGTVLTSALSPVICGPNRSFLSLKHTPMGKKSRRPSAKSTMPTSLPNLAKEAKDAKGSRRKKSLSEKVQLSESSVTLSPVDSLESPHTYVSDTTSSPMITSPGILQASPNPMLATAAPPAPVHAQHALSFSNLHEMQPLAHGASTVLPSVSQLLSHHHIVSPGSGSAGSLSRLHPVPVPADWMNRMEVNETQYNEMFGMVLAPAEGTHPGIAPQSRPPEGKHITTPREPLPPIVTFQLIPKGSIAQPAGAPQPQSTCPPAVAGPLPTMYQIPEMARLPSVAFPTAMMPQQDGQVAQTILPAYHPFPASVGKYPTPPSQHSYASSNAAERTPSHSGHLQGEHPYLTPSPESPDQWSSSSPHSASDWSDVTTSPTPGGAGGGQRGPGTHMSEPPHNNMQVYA

B1: EGFL7 protein (endogenous, in lysates of human AML cells: Kasumi-1, THP-1, primary AML patient blasts) (ligand)
chain: TEHAYRPGRRVCAVRAHGDPVSESFVQRVYQPFLTTCDGHRACSTYRTIYRTAYRRSPGLAPARPRYACCPGWKRTSGLPGACGAAICQPPCRNGGSCVQPGRCRCPAGWRGDTCQSDVDECSARRGGCPQRCVNTAGSYWCQCWEGHSLSADGTLCVPKGGPPRVAPNPTGVDSAMKEEVQRLQSRVDLLEEKLQLVLAPLHSLASQALEHGLPDPGSLLVHSFQQLGRIDSLSEQISFLEEQLGSCSCKKDS
notes: Endogenous protein immunoprecipitated from cell lysates; also called Epidermal growth factor-like domain 7
B1: binds [1]; binds [2].
